Assay results published in publication PMC12439581 (mAbs, 2025).
“And” between values parts separate entries of the source, which are not always exact repeats. Equal values may be shown once.

Key:
[1] = biological target: T1, biotinylated α-elapitoxin-Dpp2d from Dendroaspis polylepis (Dendroaspis polylepis (black mamba), UniProt C0HJD7); experiment: BLI; […]; association at pH 7.4, dissociation at pH 5.5; 1:1 global fit; details: both partners purified
T1 sequence (C0HJD7 whole entry): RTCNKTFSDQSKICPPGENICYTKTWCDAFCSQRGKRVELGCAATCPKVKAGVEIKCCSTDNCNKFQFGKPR

[2] = biological target: T2, biotinylated α-cobratoxin from Naja kaouthia (Naja kaouthia, biotin through amine coupling (NHS-PEG4-Biotin), sites not stated); experiment: BLI; details: both partners purified
T2 chain: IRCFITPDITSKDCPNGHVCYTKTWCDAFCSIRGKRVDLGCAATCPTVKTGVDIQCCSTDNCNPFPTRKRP

[3] = biological target: T3, biotinylated α-bungarotoxin from Bungarus multicinctus (Bungarus multicinctus); experiment: BLI; […]; association at pH 7.4, dissociation at pH 7.4; 1:1 global fit, […]; details: both partners purified
T3 sequence (P60615 22-95): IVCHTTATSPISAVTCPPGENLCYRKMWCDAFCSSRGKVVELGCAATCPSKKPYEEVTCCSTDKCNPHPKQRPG

[4] = biological target: T1, biotinylated α-elapitoxin-Dpp2d from …; experiment: as above; details: both partners purified
[5] = biological target: T4, biotinylated α-elapitoxin-Dpp2d from Dendroaspis polylepis (Dendroaspis polylepis (black mamba), UniProt C0HJD7); experiment: DELFIA (dissociation-enhanced lanthanide fluorescence immunoassay); details: one partner purified
[6] = biological target: T4, biotinylated α-elapitoxin-Dpp2d from …; experiment: BLI; […]; association at pH 7.4, dissociation at pH 7.4; 1:1 model, global fit; […]; details: both partners purified
Target sequence in this assay (C0HJD7 whole entry): as the sequence (C0HJD7 whole entry) above

[7] = biological target: biotinylated α-bungarotoxin from Bungarus multicinctus (Bungarus multicinctus, UniProt P60615); experiment: BLI; details: both partners purified
Sequence of biotinylated α-bungarotoxin from Bungarus multicinctus (P60615 22-95): as the sequence (P60615 22-95) above

[8] = biological target: T5, biotinylated α-cobratoxin from Naja kaouthia (Naja kaouthia, UniProt P01391); experiment: BLI; details: both partners purified
[9] = biological target: T6, α-bungarotoxin from Bungarus multicinctus (Bungarus multicinctus, UniProt P60615); experiment: crystal structure; details: both partners purified
T6 construct: source: bought: Latoxan L8115, lyophilized purified protein
T6 sequence (P60615 22-95): as above

[10] = biological target: T4, biotinylated α-elapitoxin-Dpp2d from …; experiment: BLI; details: both partners purified
Target sequence in this assay (C0HJD7 whole entry): as the sequence (C0HJD7 whole entry) above

[11] = biological target: T3, biotinylated α-bungarotoxin from …; experiment: BLI; […]; association at pH 7.4, dissociation at pH 5.5; 1:1 global fit; details: both partners purified
[12] = biological target: T3, biotinylated α-bungarotoxin from …; experiment: BLI; […]; association at pH 7.4, dissociation at pH 7.4; 1:1 global fit, […]; details: both partners purified; remark: listed apart in the source
[13] = biological target: T5, biotinylated α-cobratoxin from Naja …; experiment: DELFIA (dissociation-enhanced lanthanide fluorescence immunoassay); details: one partner purified

B1: A12 Fab (Fab, V domains shown)
VH: QVQLVQSGAEVKKPGSSVKVSCKASGGTFSSYAISWVRQAPGQGLEWMGGIIPIFGTANYAQKFQGRVTITADESTSTAYMELRSLRSDDTAVYYCARDNLGYCSGGSCYSDYYYYYMDVWGQGTLVTVSS
VL: NFMLTQPHSVSESPGKTVTFSCTRSSGRIVSDYVHWYQQRPGSAPTTVIYEDNQRPSGVPDRFSGSIDSSSNSASLTISGLKTEDEADYYCQSYDSSNAYVVFGGGTKVTVL
- koff [1]: 0.00036 s⁻¹
- Kd [2]: 4.2 ± 0.9 nM
- koff [2]: 0.00021 s⁻¹ and 0.00053 s⁻¹
- kon [2]: 55000 M⁻¹ s⁻¹
- Kd [3]: 202 ± 28.2 nM
- koff [3]: 0.0093 s⁻¹
- kon [3]: 21000 M⁻¹ s⁻¹
- Kd [4]: 1.4 ± 1.2 nM
- koff [4]: 0.00015 s⁻¹
- kon [4]: 140000 M⁻¹ s⁻¹

B2: C05 scFv with T31D (CDR-L1) (scFv, V domains shown)
VH: QVQLVQSGAEVKKPGSSVKVSCKASGGTFSSYAISWVRQAPGQGLEWMGGIIPIFGTANYAQKFQGRVTITADESTSTAYMELRSLRSDDTAVYYCARDNLGYCSGGSCYSDYYYYYMDVWGQGTLVTVSS
VL: NFMLTQPHSVSESPGKTVTISCTRSSGSIASDYVHWYQQRPGSAPTTVIYEDNQRPSGVPDRFSGSIDSSSNSASLTISGLKTEDEADYYCQSYDSSNGSVVFGGGTKLTVL
notes: source: E. coli BL21(DE3), in culture supernatant
- binding result [5]: binds

B3: D11 Fab (Fab, V domains shown)
VH: QVQLVQSGAEVKKPGSSVKVSCKASGGTFSSYAISWVRQAPGQGLEWMGGIIPIFGTANYAQKFQGRVTITADESTSTAYMELRSLRSDDTAVYYCARDNLGYCSGGSCYSDYYYYYMDVWGQGTLVTVSS
VL: NFMLTQPRSVSESPGKTVTISCTRSSGSIGSDYVHWYQQRPGSSPTTVIYEDNQRPSGVPDRFSGSIDSSSNSASLTISGLKTEDEADYYCQSYDRSNHEVVFGGGTKLTVL
notes: also called D11 mAb
- koff [6]: 0.00015 s⁻¹
- binding result [7]: binds
- koff [8]: 0.00012 s⁻¹

B4: E01 Fab (Fab, V domains shown)
VH: QVQLVQSGAEVKKPGSSVKVSCKASGGTFSSYAISWVRQAPGQGLEWMGGIIPIFGTANYAQKFQGRVTITADESTSTAYMELRSLRSDDTAVYYCARDNLGYCSGGSCYSDYYYYYMDVWGQGTLVTVSS
VL: NFMLTQPRSVSESPGKTVTISCTRSSGSIGSDYVHWYQQRPGSSPTTVIYEDNRRPSGVPDRFSGSIASSANSASLTISGLRPEDEADYYCQSYDSTTNHVVFGGGTKVTVL
- koff [1]: 0.00049 s⁻¹
- Kd [2]: 6.6 ± 0.9 nM
- kon [2]: 54000 M⁻¹ s⁻¹
- Kd [3]: 271 ± 31.1 nM
- koff [3]: 0.0173 s⁻¹
- kon [3]: 23000 M⁻¹ s⁻¹
- Kd [4]: 1.3 ± 0.7 nM
- koff [4]: 0.00014 s⁻¹
- kon [4]: 138000 M⁻¹ s⁻¹

B5: D11 scFv, 6xHis-FLAG removed with TEV protease (construct for crystals) (scFv, V domains shown)
VH: QVQLVQSGAEVKKPGSSVKVSCKASGGTFSSYAISWVRQAPGQGLEWMGGIIPIFGTANYAQKFQGRVTITADESTSTAYMELRSLRSDDTAVYYCARDNLGYCSGGSCYSDYYYYYMDVWGQGTLVTVSS
VL: NFMLTQPRSVSESPGKTVTISCTRSSGSIGSDYVHWYQQRPGSSPTTVIYEDNQRPSGVPDRFSGSIDSSSNSASLTISGLKTEDEADYYCQSYDRSNHEVVFGGGTKLTVL
notes: source: E. coli BL21(DE3), purified (HisTrap, TEV cleavage, SEC)
- binding result [9]: binds

B6: B11 Fab (Fab, V domains shown)
VH: QVQLVQSGAEVKKPGSSVKVSCKASGGTFSSYAISWVRQAPGQGLEWMGGIIPIFGTANYAQKFQGRVTITADESTSTAYMELRSLRSDDTAVYYCARDNLGYCSGGSCYSDYYYYYMDVWGQGTLVTVSS
VL: SYELTQPPSVSVAPGQTATITCGGHNIGSNIVHWYHQKPGQAPELVISHNTNRPSGIPERFSGSNSGSTATLTISRVEAVDEADYYCQVWDSSSEHVVFGGGTKVTVL
- binding result [7]: binds
- binding result [8]: binds

B7: A01 Fab (Fab, V domains shown)
VH: QVQLVQSGAEVKKPGSSVKVSCKASGGTFSSYAISWVRQAPGQGLEWMGGIIPIFGTANYAQKFQGRVTITADESTSTAYMELRSLRSDDTAVYYCARDNLGYCSGGSCYSDYYYYYMDVWGQGTLVTVSS
VL: SYELTQPPSVSVAPGRTATITCEGDNIGQQIVHWYQQKPGQAPVAVISSDSDRPSGIPERFSGSNSGNTATLTISRVEAGDEADYYCQVWDSGSDHVVFGGGTKVTVL
notes: also called A01 mAb
- Kd [6]: 2.1 ± 0.1 nM
- koff [6]: 0.00017 s⁻¹
- binding result [7]: binds
- koff [10]: 0.0295 s⁻¹

B8: D11 Fab (Fab, V domains shown)
VH: QVQLVQSGAEVKKPGSSVKVSCKASGGTFSSYAISWVRQAPGQGLEWMGGIIPIFGTANYAQKFQGRVTITADESTSTAYMELRSLRSDDTAVYYCARDNLGYCSGGSCYSDYYYYYMDVWGQGTLVTVSS
VL: NFMLTQPRSVSESPGKTVTISCTRSSGSIGSDYVHWYQQRPGSSPTTVIYEDNQRPSGVPDRFSGSIDSSSNSASLTISGLKTEDEADYYCQSYDRSNHEVVFGGGTKLTVL
- koff [11]: 0.005 s⁻¹
- koff [1]: 0.00041 s⁻¹
- Kd [2]: 1.8 ± 0.5 nM
- koff [2]: 0.00029 s⁻¹
- kon [2]: 65000 M⁻¹ s⁻¹
- Kd [12]: 116 ± 19.6 nM
- koff [12]: 0.0047 s⁻¹
- kon [12]: 13000 M⁻¹ s⁻¹
- Kd [4]: 1.4 ± 0.6 nM
- kon [4]: 121000 M⁻¹ s⁻¹

B9: D11 scFv with serine at position 32 (CDR-L1) and histidine at position 49 (FWR-2) (scFv, V domains shown)
VH: QVQLVQSGAEVKKPGSSVKVSCKASGGTFSSYAISWVRQAPGQGLEWMGGIIPIFGTANYAQKFQGRVTITADESTSTAYMELRSLRSDDTAVYYCARDNLGYCSGGSCYSDYYYYYMDVWGQGTLVTVSS
VL: NFMLTQPRSVSESPGKTVTISCTRSSGSIGSDSVHWYQQRPGSSPTTVIHEDNQRPSGVPDRFSGSIDSSSNSASLTISGLKTEDEADYYCQSYDRSNHEVVFGGGTKLTVL
notes: also called D11-Y32S-Y49H (name built from the text: serine at position His32 of D11-Y32H-Y49H); source: E. coli BL21(DE3), in culture supernatant
- binding result [13]: binds

B10: G09 Fab (Fab, V domains shown)
VH: QVQLVQSGAEVKKPGSSVKVSCKASGGTFSSYAISWVRQAPGQGLEWMGGIIPIFGTANYAQKFQGRVTITADESTSTAYMELRSLRSDDTAVYYCARDNLGYCSGGSCYSDYYYYYMDVWGQGTLVTVSS
VL: SYELTQPPSVSVAPGRTATITCEGDNIGQQIVHWYRQKSDQAPVVVVYDGSRRPSGIPERFSGSNSGNTATLTISRVEAGDEADYYCQVWDITSDHVVFGGGTQLTVL
- binding result [7]: binds
- binding result [8]: binds

B11: A04 Fab (Fab, V domains shown)
VH: QVQLVQSGAEVKKPGSSVKVSCKASGGTFSSYAISWVRQAPGQGLEWMGGIIPIFGTANYAQKFQGRVTITADESTSTAYMELRSLRSDDTAVYYCARDNLGYCSGGSCYSDYYYYYMDVWGQGTLVTVSS
VL: SYELTQPPSMSVAPGQTARITCGGDYIGGESVHWYQQKPGRAPVAVVYDDTHRPSGIPERFSGANSGNTATLTISKVEAGDEADYYCQVWDVSSDHVVFGGGTKLTVL
- binding result [7]: binds
- binding result [8]: binds
